From article PMC4115230, “Lipid–Protein Nanodiscs Offer New Perspectives for Structural and Functional Studies of Water-Soluble Membrane-Active Peptides” (Acta Naturae, 2014)

Columns and labels:
[1] = target: T1, Membrane scaffold protein (MSP): recombinant 44-243 fragment of human apolipoprotein A1 with an N-terminal … (human, Printed limits 44-243 are in mature numbering: mature apoA-I is precursor 25-267 (243 aa), so residue 243 is the C-terminus and the offset is +24. N-terminal His6 tag omitted. Each nanodisc contains t); assay: NMR titration; VSTx1 sample (20 μM by the legend of Fig. 2, 10 mM Tris-Ac, pH 7.0, no added salt) titrated with a lipid-free MSP solution (0.7 mM); 1D 1H-NMR signal intensity taken as free peptide; 40-45 °C; fits to partition equilibrium (eq. 1) and Langmuir isotherm (eq. 2); MSP concentration and n counted per two MSP molecules (MSP×2); conditions: both partners purified
T1 sequence (chain, as listed by the source): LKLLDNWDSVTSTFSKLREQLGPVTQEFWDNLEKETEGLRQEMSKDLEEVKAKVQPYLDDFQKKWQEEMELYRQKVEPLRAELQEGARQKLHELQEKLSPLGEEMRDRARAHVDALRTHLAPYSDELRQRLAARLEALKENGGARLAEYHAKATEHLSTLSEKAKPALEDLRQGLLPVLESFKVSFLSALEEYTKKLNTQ

[2] = target: T1, Membrane scaffold protein (MSP): …; assay: as above; conditions: both partners purified; remark: listed apart in the source

B1: VSTx1, voltage sensor toxin from Grammostola spatulata spider venom (recombinant analogue with additional N-terminal Gly-Ser) (peptide)
chain: GSECGKFMWKCKNSNDCCKDLVCSSRWKWCVLASPF
notes: additional N-terminal Gly-Ser residues left by the hydrolysis with thrombin; VSTx1 toxin from Grammostola spatulata spider venom, 34 AA, 4010 Da; three disulfide bonds (cysteine knot); The gene was built from synthetic oligonucleotides; also called VSTx1 toxin; recombinant VSTx1 analogue; not shown: thioredoxin (TRX), N-terminal, cleaved
- stoichiometry N [1]: 1.6
- Ka [2]: 50000 ± 0.02 M⁻¹
- stoichiometry N [2]: 3.2 ± 0.9
